The source of these data is paper PMC8440430 (Current biology : CB, 2021).

Experiment [1] has as its target His6-MAD2 (human, UniProt Q13257 1-205). Kind of experiment: pull-down.
The target of experiment [2] is MAD2 WT (recombinant, TEV-cleaved) (human, UniProt Q13257 1-205). Kind of experiment: SEC. Background: Size exclusion chromatography separates by hydrodynamic size, large species first.
Experiment [3] has as its target FLAG-RIT1 protein (full-length recombinant RIT1) (human, UniProt Q92963 1-219). Kind of experiment: pull-down.
For experiment [4], the target named is His6-RIT1 (human, UniProt Q92963 1-219). Kind of experiment: pull-down.
Chain of His6-RIT1 (Q92963 whole entry): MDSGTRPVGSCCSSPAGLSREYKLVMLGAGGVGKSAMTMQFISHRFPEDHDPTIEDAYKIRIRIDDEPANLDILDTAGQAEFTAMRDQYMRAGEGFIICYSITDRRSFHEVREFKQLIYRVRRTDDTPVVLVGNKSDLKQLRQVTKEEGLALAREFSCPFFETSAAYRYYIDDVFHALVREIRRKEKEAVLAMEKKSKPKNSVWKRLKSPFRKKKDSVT

Chain of FLAG-RIT1 protein (full-length recombinant RIT1) (Q92963 whole entry): as above

EHQKAWALNLNGFDVEEAKILRLSGKPQ (domain or fragment, UniProt Q12834 111-138, looked up) [GST-CDC20 111-138]: the binding result in experiment [1] is recorded as “binds”.

Turning to SVWKRLKSPFRKKKD (peptide, UniProt Q92963 202-216, looked up) [RIT1 (202-216) peptide], the binding result in experiment [2] is “binds”.

B1: GST-MAD2 Loop-less (LL) (natural protein, human)
chain: MALQLSREQGITLRGSAEIVAEFFSFGINSILYQRGIYPSETFTRVQKYGLTLLVTTDLELIKYLNNVVEQLKDWLYKCSVQKLVVVISNIESGEVLERWQFDIECDKGSGEKSQKAIQDEIRSVIRQITATVTFLPLLEVSCSFDLLIYTDKDLVVPEKWEESGPQFITNSEEVRLRSFTTTIHKVNSMVAYKIPVND
For the molecule B1, the binding result in experiment [3] is “binds”.

B2: GST-RGL3 RBD (604-703) (domain or fragment, UniProt Q3MIN7 604-703, looked up)
chain: IPLPAQQSSEARVIRVSIDNDHGNLYRSILLTSQDKAPSVVRRALQKHNVPQPWACDYQLFQVLPGDRVLLIPDNANVFYAMSPVAPRDFMLRRKEGTRN
As to B2, the binding result in experiment [4] is on record as “binds”.
